According to PMC9060471:

How the values were obtained:
[1] = target: 6xHis-TLX ligand-binding domain, Q9Y466; assay: AlphaScreen or HTRF; ALPHA; atrophin peptide on donor beads, TLX ligand-binding domain on acceptor beads; competition with untagged atrophin peptide
[2] = target: 6xHis-TLX ligand-binding domain, Q9Y466; assay: BLI; 6xHis-TLX LBD on Ni-NTA biosensors, Octet Red 96; atrophin peptide in solution

Sequence of 6xHis-TLX ligand-binding domain, Q9Y466 (Q9Y466 155-385): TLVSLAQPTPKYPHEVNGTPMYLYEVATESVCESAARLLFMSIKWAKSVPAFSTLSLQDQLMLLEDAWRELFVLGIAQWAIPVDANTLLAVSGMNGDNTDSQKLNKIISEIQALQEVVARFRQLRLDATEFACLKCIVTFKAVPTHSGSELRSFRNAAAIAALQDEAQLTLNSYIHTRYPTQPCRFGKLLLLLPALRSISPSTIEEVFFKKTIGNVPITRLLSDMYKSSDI

Work on PPYADTPALRQLSEYARPHVAFSP (modifications not checked) [atrophin corepressor peptide (untagged)] yielded an EC50 [1] of 1300 nM and a Kd [2] of 14.2 µM.
